Experimental findings from the supplement of paper PMC10724198 are described below.

± gives the standard deviation of the averaged measurements.
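Also: PSI is a weighted mean of sequencing reads over stability bins, variants kept only with over 10 reads, mCherry proximal and sfGFP distal, peptide attached via GGGS linker.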

For this series, the system named is Saccharomyces cerevisiae. The series is described as follows: protein stability index of tFT-peptide fusion (C-terminal peptide) (PSI (0-1 scale)); higher = more stable (slower turnover). The conditions noted are these: genetic background: wild type; temperature: 30 C.
Sequence SSFCWAGWGGVC showed a protein stability index of 0.778 ± 0.059.

SSGRWLFLPPCP: the protein stability index came out at 0.899 ± 0.13.

For SSLGLFISTASV, the protein stability index is 0.664 ± 0.042.

SSLIGHTLRPLV registered a protein stability index of 0.686 ± 0.022.

Consider SSLLSLPLRCSF, for which the protein stability index worked out at 0.717 ± 0.039.

SSLPSFPTKCPF had a protein stability index of 0.71 ± 0.051.

In the case of SSLPSTGPRPLH, the protein stability index amounted to 0.582 ± 0.038.

Consider SSNVVLYHSCSQ, for which the protein stability index was determined as 0.65 ± 0.018.

The sequence SSPARPTRTSPA returned a protein stability index of 0.652 ± 0.061.

Take SSPDLGPVCVPC: the protein stability index worked out at 0.647 ± 0.016.

In turn, SSPFCPLFQNPL showed a protein stability index of 0.757 ± 0.056.

The sequence SSPLPHPSFSPS registered a protein stability index of 0.689 ± 0.017.

SSPLRLAPTEPS registered a protein stability index of 0.6927 ± 0.0039.

Take SSPLRVLGPESG: the protein stability index was determined as 0.689 ± 0.062.

Regarding SSPPPPPPPPSP, the protein stability index came out at 0.746 ± 0.053.

SSPPTHAPPLPP yielded a protein stability index of 0.688 ± 0.017.

SSPSPAPPPPRP returned a protein stability index of 0.738 ± 0.069.

Sequence SSQLKMESLFII had a protein stability index of 0.624 ± 0.064.

SSQRPRCTFVLL showed a protein stability index of 0.684 ± 0.031.

Take SSRPPPVLTPAR: the protein stability index was 0.745 ± 0.044.

On to SSRSQTVRTFAL, for which the protein stability index is 0.689 ± 0.068.

Regarding SSSFLVLSSHFI, the protein stability index worked out at 0.701 ± 0.028.

In the case of SSSPLPPPRLPP, the protein stability index stood at 0.7039 ± 0.0016.

SSSPPPPSLAPP: the protein stability index is 0.693 ± 0.0025.

Turning to SSTLPVYLSTTL, the protein stability index was determined as 0.662 ± 0.023.

SSTSPPPVTPPD displayed a protein stability index of 0.625 ± 0.0096.

Take SSVCPWACPPPP: the protein stability index was 0.666 ± 0.1.

SSVVCGPGVLGV: the protein stability index worked out at 0.729 ± 0.077.

In the case of STAEFLDFKMTT, the protein stability index was determined as 0.691 ± 0.05.

Consider STAPRYNGRKYS, for which the protein stability index amounted to 0.702 ± 0.069.

STFASLRPLFFS showed a protein stability index of 0.6128 ± 0.0012.

Take STGACCGTVRLL: the protein stability index amounted to 0.642 ± 0.0085.

Consider STGDWKLKFSKF, for which the protein stability index is 0.765 ± 0.066.

The sequence STGLITYNYSVC yielded a protein stability index of 0.648 ± 0.024.

STGVGGPCGRTS displayed a protein stability index of 0.617 ± 0.055.

STKVEIKKRDSR yielded a protein stability index of 0.715 ± 0.18.

STLPPSRLSSPL registered a protein stability index of 0.638 ± 0.017.

For STLRGTTESERK, the protein stability index is 0.665 ± 0.057.

In turn, STLVHSDESQLA displayed a protein stability index of 0.633 ± 0.092.

STNLITPPITNI displayed a protein stability index of 0.677 ± 0.011.

For the sequence STPLPPPTPLPA, the protein stability index is 0.723 ± 0.029.

Sequence STPPCRPFMADL registered a protein stability index of 0.619 ± 0.0035.

STPSLPPPPPSS returned a protein stability index of 0.6806 ± 0.006.

STSDAFLTFPLQ showed a protein stability index of 0.678 ± 0.051.

For STVSRHPSSPLP, the protein stability index worked out at 0.737 ± 0.039.

In the case of SVAAGCGHGGGG, the protein stability index was 0.657 ± 0.011.

Turning to SVAGDEGDRLFR, the protein stability index stood at 0.686 ± 0.022.

In turn, SVALSSPSRYCS yielded a protein stability index of 0.7137 ± 0.00077.

Regarding SVEAGHVAERES, the protein stability index came to 0.732 ± 0.061.

On to SVGGGGGAVGGG, for which the protein stability index was found to be 0.68 ± 0.007.

SVGGGRWRYGGR displayed a protein stability index of 0.662 ± 0.04.

In turn, SVGGWIARTAIV returned a protein stability index of 0.661 ± 0.011.

In turn, SVGHPAAVHHAR yielded a protein stability index of 0.675 ± 0.068.

Sequence SVGRPVACLFVH came in with a protein stability index of 0.5115 ± 0.0019.

Sequence SVLAIASVIGCL registered a protein stability index of 0.598 ± 0.032.

On to SVLAVSFLSLLV, for which the protein stability index was determined as 0.636 ± 0.04.

For SVLVTASSFLYF, the protein stability index is 0.649 ± 0.027.

Take SVMWEARTEDGS: the protein stability index came out at 0.756 ± 0.043.

Sequence SVNHVDIANSIL showed a protein stability index of 0.647 ± 0.011.

Consider SVNWVWNSVFDR, for which the protein stability index was 0.6826 ± 0.0024.

The sequence SVPPPLSPPPPP yielded a protein stability index of 0.668 ± 0.018.

SVRWFLIGCGGA: the protein stability index is 0.579 ± 0.048.

On to SVSLVQRSVCLD, for which the protein stability index came out at 0.71 ± 0.021.

Take SVSMEGCVSVRG: the protein stability index is 0.7009 ± 0.0036.
